Results on three molecules are retold here after US20250388664A1 (BIOARCTIC, published 2025).

Where two headings read alike, the source gives them in different places.

Assay [1] addresses T1, AβpE3-40 monomer (UniProt P05067 674-711, pyroglutamate at position 3 (N-terminal residue)).
T1 construct: range 3-40 (Aβ numbering); Synthetic peptide (Bachem/Anaspec), verified monomeric by SEC; also called monomeric AβpE3-40
Nature of the assay: SPR, antibody immobilised, monomer injected, 1:1 fit. As for the experimental part: (§1) Single cycle kinetics with the antibodies immobilized on a CM5 chip was used to measure the binding of the antibodies to the AβpE3-40 monomer. For the measurements, 5 μg/ml of analyte antibody was immobilized on the chip. […] Regeneration of the surface between cycles was done by injecting 30 μl 3 M MgCl₂. The binding data was fitted to a 1:1 interaction model.
(§2) In all SPR experiments, 1×HBS-EP+ (Cytiva, cat. no. BR100669) was used to dilute antibodies and target antigens. Experiments were performed at 25° C.
(§3) Affinity evaluation and KD determination by surface plasmon resonance: Binding interactions between antigens and antibodies were evaluated by SPR using a Biacore 8K instrument (Cytiva) according to standard procedures.
(In general: Surface plasmon resonance follows binding to a sensor surface in real time, without labels.)

In assay [2] the target is T2, AβpE3-42 protofibrils (UniProt P05067 674-713, pyroglutamate at position 3 (N-terminal residue)).
T2 construct: range 3-42 (Aβ numbering); Soluble aggregates made from AβpE3-42 peptide, purified in the void peak of SEC; also called AβpE3-42 PF
T2 sequence (P05067 674-713): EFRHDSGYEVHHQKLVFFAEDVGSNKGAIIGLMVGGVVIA
Nature of the assay: SPR, protofibrils immobilised, antibody injected, 1:1 fit, apparent. As for the experimental part:
(§4) Single cycle kinetics was also used to measure binding of the antibodies to AβpE3-42 protofibrils. […] Regeneration of the surface between cycles was done by injecting 30 μl 10 mM glycine-HCl pH 1.7. The binding data was fitted to a 1:1 interaction model.
as §2, §3

The target in assay [3] is T3, AβpE3-28 monomer (UniProt P05067 674-699, pyroglutamate at position 3 (N-terminal residue)).
T3 construct: range 3-28 (Aβ numbering)
T3 sequence (P05067 674-699): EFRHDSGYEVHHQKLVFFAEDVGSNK
Nature of the assay: inhibition ELISA, antigen titrated in solution, AβpE3-40 coat. As for the experimental part: (§5) The humanized antibodies were incubated at a fixed concentration (0.5 μg/ml) with titrating concentrations of the different Aβ antigens. After incubation for 45 min at 900 rpm to reach equilibrium, the antibody-Aβ samples were added to a blocked and washed ELISA plate with an AβpE3-40 coat (0.5 μM). The samples were incubated on the plate for 25 min without shaking followed by washing, incubation with detection antibody, another washing step and finally incubation with alkaline phosphatase substrate.

Assay [4] deals with T4, Aβ3-28 monomer (UniProt P05067 674-699).
T4 construct: range 3-28 (Aβ numbering)
The assay is described as above. As for the experimental part:
as §5

Assay [5] concerns the target T1, AβpE3-40 monomer. Briefly: SPR, antibody immobilised, monomer injected, 1:1 fit. Here is the method:
as §1, §2
The source holds these as a separate data set.

Another assay has as its target T5, Aβ4-28 monomer (UniProt P05067 675-699).
T5 construct: range 4-28 (Aβ numbering)
Nature of the assay: inhibition ELISA, antigen titrated in solution, AβpE3-40 coat. Here is the method:
as §5
(In an ELISA, binding on a coated surface is turned into a signal by an enzyme label.)

The target in assay [6] is T3, AβpE3-28 monomer. The assay is described as above. As for the experimental part:
as §5
This is another data set of the same source.

Assay [7] addresses T6, Aβ1-28 monomer (UniProt P05067 672-699).
T6 construct: range 1-28 (Aβ numbering)
The description is as above. As for the experimental part: as §5

The next assay addresses T7, Aβ5-28 monomer (UniProt P05067 676-699).
T7 construct: range 5-28 (Aβ numbering)
The assay is described as above. As for the experimental part: as §5

Assay [8] addresses T4, Aβ3-28 monomer. Described as above. As for the experimental part: as §5
This is another data set of the same source.

In the next assay the target is T8, AβpE11-28 monomer (UniProt P05067 682-699, pyroglutamate at position 11 (N-terminal residue)).
T8 construct: range 11-28 (Aβ numbering)
T8 peptide (looked up): EVHHQKLVFFAEDVGSNK
The description is as above. Here is the method: as §5

For another assay, the target named is T9, Aβ2-28 monomer (UniProt P05067 673-699).
T9 construct: range 2-28 (Aβ numbering)
T9 sequence (P05067 673-699): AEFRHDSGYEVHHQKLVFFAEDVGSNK
The description is as above. Here is the method: as §5

In assay [9] the target is T2, AβpE3-42 protofibrils. Described as above.
The target in assay [10] is T10, Aβ1-40 monomer (UniProt P05067 672-711).
T10 construct: range 1-40 (Aβ numbering)
T10 sequence (P05067 672-711): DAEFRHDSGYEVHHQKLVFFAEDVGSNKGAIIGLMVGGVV
The description is as above.

The target of assay [11] is T11, Aβ1-42 protofibrils (UniProt P05067 672-713).
T11 construct: range 1-42 (Aβ numbering); Soluble aggregates made from Aβ1-42 monomer
T11 sequence (P05067 672-713): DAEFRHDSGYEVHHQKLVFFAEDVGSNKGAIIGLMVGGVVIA
Described as above.

Assay [12] addresses T1, AβpE3-40 monomer. The description is as above.
Assay [13] has as its target T2, AβpE3-42 protofibrils. The description is as above. Here is the method:
(§6) The humanized antibodies were incubated at a fixed concentration (0.1 μg/ml) with titrating concentrations of the different Aβ antigens. After incubation for 45 min at 900 rpm to reach equilibrium, the antibody-Aβ samples were added to a blocked and washed ELISA plate with an AβpE3-40 coat (0.5 μM). The samples were incubated on the plate for 25 min without shaking followed by washing, incubation with detection antibody, another washing step and finally incubation with alkaline phosphatase substrate.
The source holds these as a separate data set.

Assay [14] has as its target T10, Aβ1-40 monomer. Described as above. Here is the method:
as §6
This is another data set of the same source.

The target of assay [15] is T11, Aβ1-42 protofibrils. Described as above. As for the experimental part: as §6
The source holds these as a separate data set.

Assay [16] deals with T1, AβpE3-40 monomer. Described as above. Here is the method:
as §6
The source holds these as a separate data set.

The target in assay [17] is T2, AβpE3-42 protofibrils. Briefly: SPR, protofibrils immobilised, antibody injected, 1:1 fit, apparent; Table 10; apparent KD on AβpE3-42 protofibrils. As for the experimental part: as §4, §2
Assay [18] deals with T2, AβpE3-42 protofibrils. Briefly: SPR, protofibrils immobilised, antibody injected, 1:1 fit, apparent. Here is the method: as §4, §2
The source holds these as a separate data set.

Assay [19] addresses T2, AβpE3-42 protofibrils. Briefly: SPR, protofibrils immobilised, antibody injected, 1:1 fit, apparent; apparent KD on AβpE3-42 protofibrils. Here is the method: as §4, §2
Assay [20] deals with T2, AβpE3-42 protofibrils. Briefly: SPR, protofibrils immobilised, antibody injected, 1:1 fit, apparent; binding to AβpE3-42 protofibrils; KD in pM. Here is the method: as §4, §2, §3
Assay [21] has as its target T6, Aβ1-28 monomer. Briefly: inhibition ELISA, antigen titrated in solution, AβpE3-40 coat. As for the experimental part:
as §5
This is another data set of the same source.

T6 sequence (P05067 672-699): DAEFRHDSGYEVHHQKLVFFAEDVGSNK
T1 sequence (P05067 674-711): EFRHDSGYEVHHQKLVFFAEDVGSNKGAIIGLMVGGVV
T7 sequence (P05067 676-699): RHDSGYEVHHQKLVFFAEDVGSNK
T5 sequence (P05067 675-699): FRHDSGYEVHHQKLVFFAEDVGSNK

B1: H2L7 (antibody, human IgG1, kappa, V domains shown)
VH: EVQLVQSGAEVKKPGASVRLSCKASGYSFTGFTMNWVRQALGQGLEWMGLINPYNGVTTYNQKFKGRLTMTRDMSTRTVYMDLSSLRYEDTAVYYCTREGNWEGVYWGQGTLVTVSS
VL: EIVLTQSPLSLSVTLGQSASISCRSSQSLLDSNGKTYLHWFILRPGQSPRRLIYLVSILDSGVPDRFSGSGSGTDFTLKISRVEAEDVGVYYCVQGTHFPFTFGSGTKLEIKR
notes: Humanized IgG1/kappa, expressed in CHO cells; also called humanized Pyr12.2 variant H2L7; VH2/VL7
What is called koff is a measure of how fast the partners let go of each other. Usually kon stands for the rate constant with which the complex forms. The IC50 is the midpoint of a concentration-inhibition curve. For B1, the Kd came to 2.54 nM in the assay with AβpE3-40 monomer [1], 2.54 nM in the assay with AβpE3-40 monomer [5] and 0.173 nM with AβpE3-42 protofibrils [17]. The koff with AβpE3-40 monomer [1] is 0.000125 s⁻¹; with AβpE3-42 protofibrils [2], 1.79e-05 s⁻¹; with AβpE3-40 monomer [5], 0.000125 s⁻¹; with AβpE3-42 protofibrils [18] it was 1.79e-05 s⁻¹. In addition, the kon in the assay with AβpE3-40 monomer [1] stood at 50500 M⁻¹ s⁻¹; with AβpE3-42 protofibrils [2] it was 107000 M⁻¹ s⁻¹; with AβpE3-40 monomer [5] it was 50500 M⁻¹ s⁻¹; in the assay with AβpE3-42 protofibrils [18] it was 107000 M⁻¹ s⁻¹. For the same molecule, the concentration for half-maximal inhibition (IC50) in the assay with AβpE3-28 monomer [3] was 3.6 nM; in the assay with Aβ3-28 monomer [4], 2350 nM; with Aβ4-28 monomer, above 12500 nM; in the assay with AβpE3-28 monomer [6], 5.5 nM; with Aβ1-28 monomer [7] it was above 12500 nM; with Aβ5-28 monomer, above 12500 nM. Also, the IC50 in the assay with Aβ3-28 monomer [8] is 1870 nM; with AβpE11-28 monomer it was above 12500 nM; in the assay with Aβ2-28 monomer, above 12500 nM; with AβpE3-42 protofibrils [9] it was 3 nM; with Aβ1-40 monomer [10] it was above 500 nM; with Aβ1-42 protofibrils [11], above 132 nM. Also, the IC50 is 2.35 nM with AβpE3-40 monomer [12]; 2.5 nM with AβpE3-42 protofibrils [13]; above 12500 nM in the assay with Aβ1-40 monomer [14]; above 500 nM with Aβ1-42 protofibrils [15]; 2.6 nM with AβpE3-40 monomer [16].

B2: H9L8 (antibody, human IgG1, kappa, V domains shown)
VH: QVQLVQSGPEVKKPGSSVKVSCKASGYSFTGFTMNWVRQTPGKGLEWIGLINPYNGVTTYNQKFKGRVTITADESTRTAYMELLSLTYEDTAVYYCTREGNWEGVYWGQGTPVTVSA
VL: EVVLTQSPLSISVTLGQSASISCRSSQSLLDSNGKTYLHWFILRPGQSPRRLIYLVSILDSGIPDRFSGSGSGTDFTLKISRVEAEDVGVYYCVQGTHFPFTFGGGTKLEIKR
notes: Humanized IgG1/kappa, expressed in CHO cells; also called humanized Pyr12.2 variant H9L8; VH9/VL8
Regarding B2, the Kd with AβpE3-40 monomer [5] was found to be 2.7 nM; in the assay with AβpE3-42 protofibrils [19], 0.464 nM. For the same molecule, the koff is 0.000139 s⁻¹ with AβpE3-40 monomer [5] and 2.05e-05 s⁻¹ with AβpE3-42 protofibrils [18]. Moreover, the kon stood at 53700 M⁻¹ s⁻¹ with AβpE3-40 monomer [5] and 44300 M⁻¹ s⁻¹ with AβpE3-42 protofibrils [18]. In addition, the IC50 was above 12500 nM with Aβ4-28 monomer; 3.5 nM with AβpE3-28 monomer [6]; above 12500 nM with Aβ1-28 monomer [7]; above 12500 nM in the assay with Aβ5-28 monomer; 1790 nM with Aβ3-28 monomer [8]; above 12500 nM with AβpE11-28 monomer. The IC50 with Aβ2-28 monomer is above 12500 nM; with AβpE3-42 protofibrils [13], 4.9 nM; in the assay with Aβ1-40 monomer [14] it was above 12500 nM; with Aβ1-42 protofibrils [15] it was above 500 nM; with AβpE3-40 monomer [16] it was 2.1 nM.

B3: H2L7-K12V/R71A (antibody, human IgG1, kappa)
heavy: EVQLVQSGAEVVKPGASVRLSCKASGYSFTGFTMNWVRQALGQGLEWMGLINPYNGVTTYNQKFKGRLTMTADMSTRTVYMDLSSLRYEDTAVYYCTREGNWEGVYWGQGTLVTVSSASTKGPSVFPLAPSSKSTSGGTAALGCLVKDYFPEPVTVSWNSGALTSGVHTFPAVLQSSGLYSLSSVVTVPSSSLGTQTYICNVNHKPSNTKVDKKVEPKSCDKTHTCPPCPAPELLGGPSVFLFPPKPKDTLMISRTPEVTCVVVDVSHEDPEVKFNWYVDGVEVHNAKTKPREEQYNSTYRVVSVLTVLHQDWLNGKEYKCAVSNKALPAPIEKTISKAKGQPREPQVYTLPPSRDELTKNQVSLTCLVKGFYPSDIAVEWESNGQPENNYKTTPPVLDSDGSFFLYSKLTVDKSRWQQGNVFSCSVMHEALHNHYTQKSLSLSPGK
light: EIVLTQSPLSLSVTLGQSASISCRSSQSLLDSNGKTYLHWFILRPGQSPRRLIYLVSILDSGVPDRFSGSGSGTDFTLKISRVEAEDVGVYYCVQGTHFPFTFGSGTKLEIKRTVAAPSVFIFPPSDEQLKSGTASVVCLLNNFYPREAKVQWKVDNALQSGNSQESVTEQDSKDSTYSLSSTLTLSKADYEKHKVYACEVTHQGLSSPVTKSFNRGEC
notes: VH variant of H2L7; VL and constant domains identical to H2L7
For B3, the Kd with AβpE3-40 monomer [1] was 4.14 nM; with AβpE3-42 protofibrils [20], 0.477 nM. The values for the koff in the assay with AβpE3-40 monomer [1] and with AβpE3-42 protofibrils [2] were 0.000233 s⁻¹ and 2.92e-05 s⁻¹, respectively. Also, the kon in the assay with AβpE3-40 monomer [1] was 59000 M⁻¹ s⁻¹; with AβpE3-42 protofibrils [2] it was 61200 M⁻¹ s⁻¹. The IC50 was 3 nM with AβpE3-28 monomer [3]; 10200 nM with Aβ1-28 monomer [21]; 2820 nM in the assay with Aβ3-28 monomer [4]; 3.58 nM with AβpE3-42 protofibrils [9]; above 500 nM with Aβ1-40 monomer [10]; above 132 nM with Aβ1-42 protofibrils [11]. In addition, the half-maximal inhibitory concentration (IC50) with AβpE3-40 monomer [12] came out at 1.69 nM.
